Several values for one entry are separate records, joined by “and”; a condition that tells them apart may be missing. Equal entries are not always repeated.
T1: ANGPTL8 (angiopoietin-like protein 8), endogenous in human serum (human (endogenous in serum), UniProt Q6UXH0 22-198)
T1 construct: ANGPTL8, human, circulating protein of donor serum; also called ANGPLT8; source: endogenous, human serum
T1 sequence (looked up): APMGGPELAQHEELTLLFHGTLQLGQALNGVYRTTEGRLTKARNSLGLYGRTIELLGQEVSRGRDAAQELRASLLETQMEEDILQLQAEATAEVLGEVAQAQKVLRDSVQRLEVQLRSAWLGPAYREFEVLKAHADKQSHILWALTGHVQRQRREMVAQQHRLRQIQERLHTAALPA

B1: C-terminal HIS-tagged ANGPTL3 (natural protein, human, UniProt Q9Y5C1 17-460, looked up)
chain: SRIDQDNSSFDSLSPEPKSRFAMLDDVKILANGLLQLGHGLKDFVHKTKGQINDIFQKLNIFDQSFYDLSLQTSEIKEEEKELRRTTYKLQVKNEEVKNMSLELNSKLESLLEEKILLQQKVKYLEEQLTNLIQNQPETPEHPEVTSLKTFVEKQDNSIKDLLQTVEDQYKQLNQQHSQIKEIENQLRRTSIQEPTEISLSSKPRAPRTTPFLQLNEIRNVKHDGIPAECTTIYNRGEHTSGMYAIRPSNSQVFHVYCDVISGSPWTLIQHRIDGSQNFNETWENYKYGFGRLDGEFWLGLEKIYSIVKQSNYVLRIELEDWKDNKHYIEYSFYLGNHETNYTLHLVAITGNVPNAIPENKDLVFSTWDHKAKGHFNCPEGYSGGWWWHDECGENNLNGKYNKPRAKSKPERRRGLSWKSQNGRLYSIKSTKMLIHPTDSESFE
notes: source: HEK293, transient, purified (Ni-NTA, SEC)
B2: recombinant ANGPTL3/8 complex (complex, human)
chain 1: B1 chain
chain 2: T1 sequence (looked up)
B3: C-terminal HIS-tagged ANGPTL4 (natural protein, human, UniProt Q9BY76-1 26-406, looked up)
chain: GPVQSKSPRFASWDEMNVLAHGLLQLGQGLREHAERTRSQLSALERRLSACGSACQGTEGSTDLPLAPESRVDPEVLHSLQTQLKAQNSRIQQLFHKVAQQQRHLEKQHLRIQHLQSQFGLLDHKHLDHEVAKPARRKRLPEMAQPVDPAHNVSRLHRLPRDCQELFQVGERQSGLFEIQPQGSPPFLVNCKMTSDGGWTVIQRRHDGSVDFNRPWEAYKAGFGDPHGEFWLGLEKVHSITGDRNSRLAVQLRDWDGNAELLQFSVHLGGEDTAYSLQLTAPVAGQLGATTVPPSGLSVPFSTWDQDHDLRRDKNCAKSLSGGWWFGTCSHSNLNGQYFRSIPQQRQKLKKGIFWKTWRGRYYPLQATTMLIQPMAAEAAS
B4: recombinant ANGPTL4/8 complex (complex, human)
chain 1: B3 chain
chain 2: T1 sequence (looked up)
B5: ANGPTL4 (angiopoietin-like protein 4), endogenous in human serum, N-terminally intact (natural protein, human (endogenous in serum), UniProt Q9BY76-1 26-406, looked up)
chain: B3 chain
notes: ANGPTL4, human, circulating protein of donor serum precipitated or captured with an N-terminal ANGPTL4 antibody; Full-length or N-terminal fragment; also called active ANGPTL4; source: endogenous, human serum
B6: LPL (lipoprotein lipase), avidin-tagged (enzyme)
chain: DRITGGKDFRDIESKFALRTPEDTAEDTCHLIPGVTESVANCHFNHSSKTFVVIHGWTVTGMYESWVPKLVAALYKREPDSNVIVVDWLSRAQQHYPVSAGYTKLVGQDVAKFMNWMADEFNYPLGNVHLLGYSLGAHAAGIAGSLTNKKVNRITGLDPAGPNFEYAEAPSRLSPDDADFVDVLHTFTRGSPGRSIGIQKPVGHVDIYPNGGTFQPGCNIGEALRVIAERGLGDVDQLVKCSHERSVHLFIDSLLNEENPSKAYRCNSKEAFEKGLCLSCRKNRCNNMGYEINKVRAKRSSKMYLKTRSQMPYKVFHYQVKIHFSGTESNTYTNQAFEISLYGTVAESENIPFTLPEVSTNKTYSFLLYTEVDIGELLMLKLKWISDSYFSWSNWWSSPGFDIGKIRVKAGETQKKVIFCSREKMSYLQKGKSPVIFVKCHDKSLNRKSG
modifications: biotin/Avi-type tag ('avidin-tagged') for capture on streptavidin, tag omitted; N-glycosylated. The species is not printed. The BLI methods give LPL as from Sigma, whose usual LPL is purified from …

Columns and labels:
[1] = target: ANGPTL8 (angiopoietin-like protein 8), endogenous in human serum (human (endogenous in serum)) (UniProt Q6UXH0); experiment: affinity purification with mass spectrometry; immunoprecipitation of endogenous complexes from human serum with biotinylated anti-ANGPTL antibodies and streptavidin magnetic beads; trypsin/Lys-C digest; LC-MRM with spiked stable-isotope-labelled peptides; molar ratios from two peptides for each protein
[2] = target: B6; experiment: cell-based or functional assay
[3] = target: T1, ANGPTL8 (angiopoietin-like protein 8), …; experiment: affinity purification with mass spectrometry; immunoprecipitation of endogenous complexes from human serum with biotinylated anti-ANGPTL antibodies and streptavidin magnetic beads; trypsin/Lys-C digest; LC-MRM with spiked stable-isotope-labelled peptides; molar ratios from two peptides for each protein; conditions: partners not purified
[4] = target: B4; experiment: BLI; Octet RED96e; avidin-tagged LPL immobilised on streptavidin biosensors; 50 nM ANGPTL protein or complex; dissociation in buffer-only wells; conditions: both partners purified

ANGPTL3 (angiopoietin-like protein 3), endogenous in human serum (natural protein)
stoichiometry N (ANGPTL3 per ANGPTL8 (protein ratio)) [1]: 3.4 and 3.5

B1
IC50 of inhibition of LPL enzymatic activity; human LPL-stable expression cells, BODIPY-TG (EnzChek) substrate [2]: 26 nM

B2
IC50 of inhibition of LPL enzymatic activity; human LPL-stable expression cells, BODIPY-TG (EnzChek) substrate [2]: 0.14 nM

B3
IC50 of inhibition of LPL enzymatic activity; human LPL-stable expression cells, BODIPY-TG (EnzChek) substrate [2]: 0.29 nM | IC50 of inhibition of LPL enzymatic activity; human LPL-stable expression cells, VLDL substrate, NEFA released [2]: 0.44 nM

B4
IC50 of inhibition of LPL enzymatic activity; human LPL-stable expression cells, BODIPY-TG (EnzChek) substrate [2]: 37 nM | IC50 of inhibition of LPL enzymatic activity; human LPL-stable expression cells, VLDL substrate, NEFA released [2]: 105 nM

B5
stoichiometry N [3]: 0.8 ANGPTL4 per ANGPTL8 (protein ratio)

B6
Kd [4]: < 1 pM | koff [4]: < 1e-07 s⁻¹ | kon [4]: 48000 M⁻¹ s⁻¹
